Data taken from article PMC10397247.

How the values were obtained:
[1] = target: T1, O3-bH; assay: two-hybrid library CCNG1;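 further: natural log of median RNA to DNA barcode read ratio; higher means stronger binding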
T1 chain: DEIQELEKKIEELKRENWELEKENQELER

[2] = target: T2, O16-bH; assay: two-hybrid library CCNG1;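 further: natural log of median RNA to DNA barcode read ratio; higher means stronger binding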
T2 chain: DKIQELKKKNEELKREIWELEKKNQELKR

[3] = target: T3, O5-bH; assay: two-hybrid library CCNG1;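 further: natural log of median RNA to DNA barcode read ratio; higher means stronger binding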
T3 chain: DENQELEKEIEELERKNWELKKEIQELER

[4] = target: T4, O13-bH; assay: two-hybrid library CCNG1;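 further: natural log of median RNA to DNA barcode read ratio; higher means stronger binding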
T4 chain: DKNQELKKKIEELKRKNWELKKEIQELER

[5] = target: T5, O9-bH; assay: two-hybrid library CCNG1
T5 chain: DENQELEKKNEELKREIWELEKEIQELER

[6] = target: T6, O4-bH; assay: two-hybrid library CCNG1
T6 chain: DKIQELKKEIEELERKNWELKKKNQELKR

[7] = target: T7, O2-bH; assay: two-hybrid library CCNG1
T7 chain: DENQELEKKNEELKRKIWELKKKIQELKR

[8] = target: T8, O8-bH; assay: two-hybrid library CCNG1
T8 chain: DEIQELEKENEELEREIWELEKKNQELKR

[9] = target: T9, O12-bH; assay: two-hybrid library CCNG1
T9 chain: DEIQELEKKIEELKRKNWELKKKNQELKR

[10] = target: T10, O6-bH; assay: two-hybrid library CCNG1
T10 chain: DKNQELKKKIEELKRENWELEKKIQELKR

[11] = target: T11, O14-bH; assay: two-hybrid library CCNG1
T11 chain: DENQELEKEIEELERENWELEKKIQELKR

[12] = target: T12, O15-bH; assay: two-hybrid library CCNG1
T12 chain: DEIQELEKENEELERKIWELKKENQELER

[13] = target: T13, O7-bH; assay: two-hybrid library CCNG1
T13 chain: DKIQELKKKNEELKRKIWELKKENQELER

[14] = target: T14, 4H2691-bN; assay: two-hybrid library CCNG1
T14 chain: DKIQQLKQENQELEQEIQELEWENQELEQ

[15] = target: T15, 4H3632-bN; assay: two-hybrid library CCNG1
T15 chain: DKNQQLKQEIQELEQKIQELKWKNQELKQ

[16] = target: T16, 4H496-bN; assay: two-hybrid library CCNG1
T16 chain: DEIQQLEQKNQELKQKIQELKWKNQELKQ

[17] = target: T17, 4H3070-bN; assay: two-hybrid library CCNG1
T17 chain: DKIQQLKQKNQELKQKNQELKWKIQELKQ

[18] = target: T18, 4H342-bN; assay: two-hybrid library CCNG1
T18 chain: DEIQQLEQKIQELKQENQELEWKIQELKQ

[19] = target: T19, 4H363-bN; assay: two-hybrid library CCNG1
T19 chain: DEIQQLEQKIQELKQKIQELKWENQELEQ

[20] = target: T20, 4H2619-bN; assay: two-hybrid library CCNG1
T20 chain: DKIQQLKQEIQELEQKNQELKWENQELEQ

[21] = target: T21, 4H470-bN; assay: two-hybrid library CCNG1
T21 chain: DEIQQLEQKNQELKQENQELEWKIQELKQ

[22] = target: T22, 4H3961-bN; assay: two-hybrid library CCNG1
T22 chain: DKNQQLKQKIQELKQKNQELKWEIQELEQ

[23] = target: T23, 4H2745-bN; assay: two-hybrid library CCNG1
T23 chain: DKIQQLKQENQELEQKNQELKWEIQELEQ

[24] = target: T24, 4H3907-bN; assay: two-hybrid library CCNG1
T24 chain: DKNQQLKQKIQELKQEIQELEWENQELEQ

[25] = target: T25, 4H3112-bN; assay: two-hybrid library CCNG1
T25 chain: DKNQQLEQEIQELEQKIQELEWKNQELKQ

[26] = target: T26, 4H344-bN; assay: two-hybrid library CCNG1
T26 chain: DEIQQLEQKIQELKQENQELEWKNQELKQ

[27] = target: T27, P6SH; assay: two-hybrid library CCNG1
T27 chain: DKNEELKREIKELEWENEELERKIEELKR

[28] = target: T28, P8SH; assay: two-hybrid library CCNG1
T28 chain: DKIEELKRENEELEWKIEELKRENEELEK

[29] = target: T29, P7SH; assay: two-hybrid library CCNG1
T29 chain: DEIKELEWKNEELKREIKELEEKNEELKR

[30] = target: T30, 4H3592-bA; assay: two-hybrid library CCNG1
T30 chain: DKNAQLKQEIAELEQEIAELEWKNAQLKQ

[31] = target: T31, 4H1406-bA; assay: two-hybrid library CCNG1
T31 chain: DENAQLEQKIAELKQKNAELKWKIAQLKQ

[32] = target: T32, 4H4038-bA; assay: two-hybrid library CCNG1
T32 chain: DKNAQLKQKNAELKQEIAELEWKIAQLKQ

[33] = target: T33, 4H3907-bA; assay: two-hybrid library CCNG1
T33 chain: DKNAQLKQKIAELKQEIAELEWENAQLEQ

[34] = target: T34, 4H3601-bA; assay: two-hybrid library CCNG1
T34 chain: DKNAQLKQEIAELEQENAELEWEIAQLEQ

[35] = target: T35, 4H2134-bA; assay: two-hybrid library CCNG1
T35 chain: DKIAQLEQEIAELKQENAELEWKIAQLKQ

[36] = target: T36, 4H2504-AA; assay: two-hybrid library CCmax; details: mean of both orientations
T36 chain: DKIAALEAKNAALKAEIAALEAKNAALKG

[37] = target: T37, 4H2774-AA; assay: two-hybrid library CCmax; details: mean of both orientations
T37 chain: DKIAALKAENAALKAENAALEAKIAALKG

[38] = target: T38, 4H3001-AA; assay: two-hybrid library CCmax; details: mean of both orientations
T38 chain: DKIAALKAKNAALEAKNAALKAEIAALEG

[39] = target: T39, 4H406-AA; assay: two-hybrid library CCmax; details: mean of both orientations
T39 chain: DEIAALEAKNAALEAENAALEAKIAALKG

[40] = target: T40, 4H3381-AA; assay: two-hybrid library CCmax; details: mean of both orientations
T40 chain: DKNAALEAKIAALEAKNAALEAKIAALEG

[41] = target: T41, 4H2592-AA; assay: two-hybrid library CCmax; details: mean of both orientations
T41 chain: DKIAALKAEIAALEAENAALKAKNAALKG

[42] = target: T42, 4H376-AA; assay: two-hybrid library CCmax; details: mean of both orientations
T42 chain: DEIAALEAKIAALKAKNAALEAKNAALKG

[43] = target: T43, 4H249-AA; assay: two-hybrid library CCmax; details: mean of both orientations
T43 chain: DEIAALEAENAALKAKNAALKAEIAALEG

[44] = target: T44, 4H2219-AA; assay: two-hybrid library CCmax
T44 chain: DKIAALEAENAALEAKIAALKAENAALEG

[45] = target: T45, 4H963-AA; assay: two-hybrid library CCmax; details: mean of both orientations
T45 chain: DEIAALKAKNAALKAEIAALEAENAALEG

[46] = target: T46, 4H688-AA; assay: two-hybrid library CCmax; details: mean of both orientations
T46 chain: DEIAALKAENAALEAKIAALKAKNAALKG

[47] = target: T47, 4H2611-AA; assay: two-hybrid library CCmax; details: mean of both orientations
T47 chain: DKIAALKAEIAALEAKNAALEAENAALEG

[48] = target: T48, 4H347-AA; assay: two-hybrid library CCmax; details: mean of both orientations
T48 chain: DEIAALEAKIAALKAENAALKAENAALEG

[49] = target: T49, 4H3493-AA; assay: two-hybrid library CCmax
T49 chain: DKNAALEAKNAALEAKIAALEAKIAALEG

[50] = target: T50, 4H3340-AA; assay: two-hybrid library CCmax; details: mean of both orientations
T50 chain: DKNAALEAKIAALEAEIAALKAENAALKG

[51] = target: T51, 4H953-AA; assay: two-hybrid library CCmax; details: mean of both orientations
T51 chain: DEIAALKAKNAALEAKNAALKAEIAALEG

[52] = target: T52, 4H3354-AA; assay: two-hybrid library CCmax; details: mean of both orientations
T52 chain: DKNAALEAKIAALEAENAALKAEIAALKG

[53] = target: T53, 4H883-AA; assay: two-hybrid library CCmax; details: mean of both orientations
T53 chain: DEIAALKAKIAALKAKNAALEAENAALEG

[54] = target: T54, 4H3112-AA; assay: two-hybrid library CCmax; details: mean of both orientations
T54 chain: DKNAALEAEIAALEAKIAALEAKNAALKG

[55] = target: T55, 4H717-AA; assay: two-hybrid library CCmax; details: mean of both orientations
T55 chain: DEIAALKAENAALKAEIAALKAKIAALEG

[56] = target: T56, 4H568-AA; assay: two-hybrid library CCmax; details: mean of both orientations
T56 chain: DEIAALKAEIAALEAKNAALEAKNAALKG

[57] = target: T57, 4H797-AA; assay: two-hybrid library CCmax; details: mean of both orientations
T57 chain: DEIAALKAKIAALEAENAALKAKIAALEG

[58] = target: T58, 4H967-AA; assay: two-hybrid library CCmax; details: mean of both orientations
T58 chain: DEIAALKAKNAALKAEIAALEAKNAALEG

[59] = target: T59, 4H918-AA; assay: two-hybrid library CCmax; details: mean of both orientations
T59 chain: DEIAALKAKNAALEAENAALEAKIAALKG

[60] = target: T60, 4H3855-AA; assay: two-hybrid library CCmax; details: mean of both orientations
T60 chain: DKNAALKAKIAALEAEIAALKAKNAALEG

[61] = target: T61, 4H3782-AA; assay: two-hybrid library CCmax; details: mean of both orientations
T61 chain: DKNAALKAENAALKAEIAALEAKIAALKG

[62] = target: T62, 4H2442-AA; assay: two-hybrid library CCmax
T62 chain: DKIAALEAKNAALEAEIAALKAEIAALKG

[63] = target: T63, 4H687-AA; assay: two-hybrid library CCmax; details: mean of both orientations
T63 chain: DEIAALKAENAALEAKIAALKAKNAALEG

[64] = target: T64, 4H4001-AA; assay: two-hybrid library CCmax; details: mean of both orientations
T64 chain: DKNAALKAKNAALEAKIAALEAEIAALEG

[65] = target: T65, 4H3427-AA; assay: two-hybrid library CCmax; details: mean of both orientations
T65 chain: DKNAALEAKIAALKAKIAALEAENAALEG

DEIQELEKKIEELKRKNWELKKKNQELKR [O12-bH]
interaction score [1]: 1.56 | interaction score [2]: -0.436 | interaction score [3]: -1.26 | interaction score [4]: 0.332 | interaction score [5]: 0.102 | interaction score [6]: 1.12 | interaction score [7]: -1.26 | interaction score [8]: 1.12 | interaction score [9]: 0.775 | interaction score [10]: 0.619 | interaction score [11]: -1.38 | interaction score [12]: 0.483 | interaction score [13]: -0.37

DKIQQLKQENQELEQEIQELEWENQELEQ [4H2691-bN]
interaction score [14]: -0.448 | interaction score [15]: -1.21 | interaction score [16]: 1.01 | interaction score [17]: -1.24 | interaction score [18]: -0.0194

DKIQQLKQEIQELEQKNQELKWENQELEQ [4H2619-bN]
interaction score [19]: -1.48 | interaction score [14]: -1.49 | interaction score [20]: 0.209 | interaction score [15]: -0.529 | interaction score [21]: -0.608 | interaction score [22]: -1.65 | interaction score [23]: -0.673 | interaction score [16]: -1.66 | interaction score [24]: -0.483 | interaction score [17]: -0.245 | interaction score [25]: 0.149 | interaction score [18]: 1.23 | interaction score [26]: 0.255

DKNEELKREIKELEWENEELERKIEELKR [P6SH]
interaction score [27]: 0.574 | interaction score [28]: 0.565 | interaction score [29]: 0.762

DENAQLEQKIAELKQKNAELKWKIAQLKQ [4H1406-bA]
interaction score [30]: 0.233 | interaction score [31]: -0.836 | interaction score [32]: -0.125 | interaction score [33]: 0.571 | interaction score [34]: 1.83 | interaction score [35]: 1.62

DKIAALEAENAALEAKIAALKAENAALEG [4H2219-AA]
interaction score [36]: 2.21 | interaction score [37]: -0.727 | interaction score [38]: -0.483 | interaction score [39]: -1.81 | interaction score [40]: -1.13 | interaction score [41]: -0.491 | interaction score [42]: -1.64 | interaction score [43]: -1.35 | interaction score [44]: -1.21 | interaction score [45]: 0.45 | interaction score [46]: -0.493 | interaction score [47]: -1.33 | interaction score [48]: -1.36 | interaction score [49]: -1.56 | interaction score [50]: -1.39

DKIAALEAKNAALEAEIAALKAEIAALKG [4H2442-AA]
interaction score [51]: -1.67 | interaction score [52]: -1.37 | interaction score [53]: -1.82 | interaction score [54]: -1.4 | interaction score [55]: -1.4 | interaction score [56]: -1.38 | interaction score [57]: -1.52 | interaction score [58]: -2.2 | interaction score [59]: -1.29 | interaction score [60]: -1.56 | interaction score [61]: -1.14 | interaction score [62]: 1.97 | interaction score [63]: -1.85 | interaction score [64]: -2.06 | interaction score [65]: -1.52
